According to US20100279409A1, “METHOD FOR MODIFYING CELLUAR IMMUNE RESONSE BY MODULATING ACTIVIN ACTIVITY” (priority 2007, published 2010):

Key:
Human MoDCs = experiment: Activin-A secretion by stimulated MoDCs; type: cell-based; conditions: MoDCs in GM-CSF and IL-4, 2-72 hours
Protocol: Human MoDCs were co-cultured, in a medium containing both GM-CSF and IL-4, with one of (i) intact E. coli, (ii) CD40L, (iii) a TLR ligand (LPS, R848, Poly I:C, or Pam3Cys, which bind, respectively, to TLR4, 7/8, 3, and 2/6), or (iv) one of the inflammatory mediators PGE2 or ATP. Culture was carried out for from 2-72 hours. Supernatants were collected, and assayed for activin-A, using standard methods.

MoDCs [1] = experiment: qRT-PCR kinetics of activin receptor mRNA in stimulated MoDCs; type: cell-based, human
Protocol: In follow up experiments, the kinetics of gene expression described in Example 1 were studied, by stimulating MoDCs with either of trimeric CD40L or LPS, via quantitative real time PCR, or “qRT-PCR,” using standard methods and primers specific for activin βA and the activin receptor molecules ALK-2, and ALK-4. The primers differed from those used in the RT-PCR work, described supra. Stimulus was accomplished with 2 μg/ml of CD40L trimer, or 100 ng/ml of E. coli derived LPS for anywhere from 2-24 hours. As a control, MoDCs were cultured in GM-CSF plus IL-4 for the same length of time.

Human NK cells = experiment: IFN-γ ELISA of purified NK cells; type: cell-based; conditions: for IFN-γ production: NK cells
Protocol: A total of 1×10^5 highly purified human NK cells were cultured for 20 hours in medium supplemented with 20 U/ml IL-2, and 10 ng/ml IL-12. Either human recombinant activin-A, or TGF-β was added to the cultures, at concentrations of 10, 50 and 100 ng/ml. Supernatants were then tested for IFN-γ via ELISA, using standard methods. In these experiments 1×10^5 highly purified human NK cells were cultured as above, but were cultured with Poly I:C (10 μg/ml), or LPS (100 ng/ml), with or without 10, 50, or 100 ng/ml of recombinant human activin-A. In some cases, the known compound “SB431542,” which blocks activin-A binding to receptors was added. IFN-γ was then measured via ELISA, or by intracellular cytokine staining after 16 hours of culture, via addition of 1 μg/ml BFA, to prevent cytokine release. The impact of activin-A on production of IFN-γ by NK cells, in the absence of dendritic cells, was ascertained. Purified NK cells (1×10^5) were cultured in 96 well-plants, in media that was supplemented with 20 U/ml IL-2 and 10 ng/ml, IL-12, in the absence of, or with increasing concentrations of either activin-A, or TGF-β. Culture supernatants were assayed for IFN-γ after 24 hours of culture, using ELISAs, as described supra. As in the prior experiments, 1×10^5 purified NK cells were cultured in media supplemented with IL-2 only, or IL-2 plus IL-12, either with or without one of poly I:C or LPS, in the presence or absence of increased levels of activin-A.

NK cells [2] = experiment: NKp30 expression on NK cells by flow cytometry; type: cell-based, human; conditions: NK cells after 3 day culture, 100 ng/ml
Protocol: In order to investigate the mechanism behind these differences, the same NK cells were purified and cryopreserved immediately after the 3 day culture period. The cells were thawed, washed, and stained for NCR. NKp30, with expression levels determined via flow cytometry. The level of expression was also determined using “ex vivo” samples, and NK cells that were cultured, without exposure to targets.

[3] = test system: NK cells (target cells K562 or Jurkat cells); experiment: NK cell killing of calcein-labeled target cells; type: cell-based, human; conditions: 100 ng/ml, 3 days culture, K562 or Jurkat targets, 4 hours
Protocol: 1×10^6 purified NK cells were cultured in 24 well-plates, either with a high dose of IL-2 (100 U/ml), or a combination of 20 U/ml of IL-2 and IL-12. The culturing took place in the absence of either of activin-A or TGF-β or 100 ng/ml of one of them. The culture continued for 3 days.
After the 3 days of culture, the NK cells were combined with target cells K562 or Jurkat cells, at effector (NK cells): target (K562 or Jurkat cells) ratios of 5:1, 2:1, and 0.1:1. The target cells had been labeled with calcein previously. The total number of labeled target cells was 2×10^4, and the mixture was incubated for 4 hours. The efficiency of killing was determined by measuring calcein dye release via spectrometry.

NK cells [4] = experiment: NK cell viability by caspase and PI staining; type: cell-based, human; conditions: 24 hours
Protocol: With respect to testing viability, 1×10^5 purified NK cells were cultured as described supra, in 96 well-plates. After 24 hours of culture, cells were stained with antibodies to polycaspase, caspase 3/7, caspase 8 and PI.

MoDC = experiment: Chemokine secretion by CD40L-stimulated MoDCs with follistatin; type: cell-based, human; conditions: 24 hours, increasing follistatin
Protocol: MoDC culture supernatants were screened following 24 hours of culture, using controls, and increasing concentration of follistatin, as described supra. Assays were carried out, following standard methods, for IL-12p70, TNF-α, IL-8, IP-10, RANTES, and MCP-1.

MoDCs [5] = experiment: IL-12p35 expression, IL-12p70 and TNF-α secretion by CD40L-stimulated MoDCs; type: cell-based, human
Protocol: In view of this, the experiments were extended to investigate the impact, if any on IL-12p70, a potent TH1 cytokine, and pro-inflammatory TNF-α. The experiments were carried out in the same way as the prior experiments were.

[6] = test system: MoDCs co-cultured with NK cells; experiment: IFN-γ production in MoDC and NK cell co-culture with follistatin; type: cell-based, human
Protocol: The dendritic cells were obtained by culturing CD14^+ monocytes with GM-CSF and IL-4, for 6-7 days, which are standard culture conditions. A sample of 5×10^4 MoDCs were co-cultured with 1×10^5 NK cells, either with or without 400 ng/ml follistatin. As controls, samples of each type of cell were cultured individually.
IFN-γ production was measured, as described supra.
To test this, 5×10^4 immature MoDCs were cultured, in 96 well-plates, in standard media supplemented with 20 U/ml IL-2 and 20 ng/ml GM-CSF only, or with the addition of 1×10^5 autologous NK cells. In addition, the cells were stimulated with IL-12 and poly I:C. In addition, 400 ng/ml of follistatin was added to cultures in order to neutralize activin-A.
After 24 hours, supernatants were collected, and assayed for IFNγ via a standard ELISA.

MoDCs [7] = experiment: qRT-PCR of IL-6 mRNA in MoDCs with follistatin; type: cell-based, human; conditions: follistatin 400 ng/ml
Protocol: When qRT-PCR was carried out, a 15 fold increase in IL-6 mRNA expression was observed 2 hours after MoDC stimulation and the 400 ng/ml dose of follistatin, with a peak at 4 hours, (30 fold), with a decrease over 6-24 hours.

MoDCs [8] = experiment: IL-10 secretion and mRNA in MoDCs with follistatin; type: cell-based, human
Source text: Supernatants were screened, via standard ELISAs, for a large array of cytokines and chemokines, including pleiotropic IL-10.

MoDCs [9] = experiment: IL-6 and cytokine ELISA of stimulated MoDCs with follistatin; type: cell-based, human; conditions: for IL-6 production: follistatin 0, 20, 100 ng/ml
Protocol: Prior studies had shown that, in an in vivo LPS challenge model, activin-A is released into the circulatory system rapidly, and can be detected prior to IL-6, and just prior to TNF-α release. […] This was tested by combining MoDCs with trimeric CD40L, or LPS, at a fixed concentration, together with varying concentrations of follistatin (0, 20, and 100 ng/ml) MoDCs were combined with GM-CSF and IL-4 as a control. Supernatants were collected after 4 hours, 24 hours, and 48 hours of culture, and then assayed for IL-6 via a standard ELISA.
Further experiments were then carried out, using trimeric CD40L or concentrations of LPS and follistatin that were even higher (1 ng/ml-150 ng/ml for LPS, and 400 ng/ml for follistatin).

immature MoDCs = experiment: Activin-A ELISA of CD40L-stimulated MoDCs with follistatin; type: cell-based, human; conditions: CD40L 2 μg/ml
Protocol: The early autocrine/paracrine release of activin-A by MoDCs was viewed as a possible potentiating feedback loop to further activin-A production. To test this, immature MoDCs were cultured with 2 μg/ml of CD40L, together with increasing concentrations of follistatin (0-400 ng/ml). Supernatants were collected over a 6 hour period and activin-A was qualified in a standard ELISA.

[10] = test system: CD8+ T cells co-cultured with MoDCs; type: cell-based, human; conditions: follistatin 400 ng/ml, nine days, IFN-γ secretion and CD107a expression
[11] = CD40L-stimulated MoDCs with follistatin

Molecule: CCOCc1nc2c(N)nc3ccccc3c2n1CC(C)(C)O [R848]
- activin-A secretion (Human MoDCs): significant amounts of activin-A after 6 hours of stimulation

Molecule: CD40L: trimeric CD40L used to stimulate MoDCs
- activin RIIA mRNA (MoDCs [1]; after 2 hours): upregulated
- ALK-4 mRNA (MoDCs [1]; after 24 hours of stimulation, vs controls): significantly higher than controls
- ALK-4 mRNA (MoDCs [1]; early in the culture period): downregulated
- activin RIIB mRNA (MoDCs [1]; over 2-24 hours): early down regulation, followed by increases over time

Molecule: Poly I:C [reference compound]
- IFN-γ production induced by stimulus (Human NK cells; added to stimulated NK cultures): enhanced IFN-γ production
- activin-A secretion (Human MoDCs): significant amounts of activin-A after 6 hours of stimulation

Molecule: NC(=O)c1ccc(-c2nc(-c3ccc4c(c3)OCO4)c(-c3ccccn3)[nH]2)cc1 [SB431542, reference compound]
- activin-A suppression of IFN-γ production (Human NK cells; added at a concentration of 10 for 30 minutes before activin-A): reversed

Molecule: Pam3Cys
- activin-A secretion (Human MoDCs): did not

Molecule: TGF-β
- IFN-γ production (Human NK cells; IL-2 and IL-12, 20 hours, 10, 50, 100 ng/ml): suppressing the production of IFN-γ
- IFN-γ production (Human NK cells; IL-2 and IL-12, 24 hours, increasing concentrations): inhibiting IFN-γ production
- NKp30 expression (NK cells [2]): substantial down regulation of the receptor
- killing ability of NK cells [3]: significantly suppressed
- apoptosis (polycaspase, caspase 3/7, caspase 8, PI staining) (NK cells [4]): no indication of apoptosis

Molecule: CCCCC[C@H](O)/C=C/[C@H]1[C@H](O)CC(=O)[C@@H]1C/C=C\CCCC(=O)O [PGE2]
- activin-A secretion (Human MoDCs): neither of these stimulated activin-A release above the levels observed in unstimulated MoDC cultures

Molecule: Nc1ncnc2c1ncn2[C@@H]1O[C@H](COP(=O)(O)OP(=O)(O)OP(=O)(O)O)[C@@H](O)[C@H]1O [ATP]
- activin-A secretion (Human MoDCs): neither of these stimulated activin-A release above the levels observed in unstimulated MoDC cultures

B1: follistatin (protein, UniProt P19883 30-344, looked up)
Follistatin: GNCWLRQAKNGRCQVLYKTELSKEECCSTGRLSTSWTEEDVNDNTLFKWMIFNGGAPNCIPCKETCENVDCGPGKKCRMNKKNKPRCVCAPDCSNITWKGPVCGLDGKTYRNECALLKARCKEQPELEVQYQGRCKKTCRDVFCPGSSTCVVDQTNNAYCVTCNRICPEPASSEQYLCGNDGVTYSSACHLRKATCLLGRSIGLAYEGKCIKAKSCEDIQCTGGKKCLWDFKVGRGRCSLCDELCPDSKSDEPVCASDNATYASECAMKEAACSSGVLLEVKHSGSCNSISEDTEEEEEDEDQDYSFPISSILEW
- IL-8 production (MoDC): substantially enhanced
- MCP-1 production (MoDC): substantially enhanced
- RANTES production (MoDC): substantially enhanced
- IL-12p70 protein secretion (MoDCs [5]; [11]): dose dependent enhancement
- TNF-α secretion (MoDCs [5]; [11]): dose dependent enhancement peaking at 24 hours
- IL-12p35 expression vs CD40L alone (MoDCs [5]; at 24 hours, CD40L plus follistatin): at least 15 fold
- IL-12p70 secretion (MoDCs [5]; follistatin alone, without any other stimulus): did not induce IL-12p70 secretion
- IFN-γ production ([6]; MoDCs co-cultured with NK cells, follistatin 400 ng/ml): increased markedly
- IFN-γ production ([6]; NK cells alone stimulated with cytokines): had no impact
- IFN-γ production ([6]; immature MoDCs and autologous NK cells, IL-12 and poly I:C, follistatin 400 ng/ml, 24 hours): significant increases in IFN-γ production
- increase in IL-6 mRNA expression (MoDCs [7]; 2 hours after MoDC stimulation): 15 fold
- increase in IL-6 mRNA expression (MoDCs [7]; peak at 4 hours): 30 fold
- IL-10 mRNA expression (MoDCs [8]; CD40L-stimulated MoDCs with follistatin, peak at 4 hours): increased IL-10 mRNA expression
- CD40L mediated IL-10 secretion (MoDCs [8]; MoDCs with follistatin): enhanced IL-10 secretion by the MoDCs in a dose dependent manner
- E. coli mediated IL-10 secretion (MoDCs [8]; MoDCs with follistatin): did not impact
- IL-6 production (MoDCs [9]; CD40L-stimulated MoDCs): as follistatin concentration increased, so too did IL-6 production
- LPS mediated IL-6 production (MoDCs [9]; LPS 1 ng/ml-150 ng/ml, follistatin 400 ng/ml): not LPS mediated IL-6 production, at any dose
- IL-6 production (MoDCs [9]; LPS-stimulated MoDCs): did not influence its production
- CD40L mediated production of IL-6 (MoDCs [9]; follistatin 400 ng/ml): dramatically enhanced
- MoDC cytokine production (MoDCs [9]; follistatin alone, no other stimulus): did not induce MoDC cytokine production
- activin-A production (immature MoDCs; follistatin 0-400 ng/ml, first 2-4 hours): dose dependent decreases in activin-A production
- activin-A production (immature MoDCs; follistatin 400 ng/ml, at 6 hours): unable to abrogate the level of activin-A production
- percentage of influenza matrix specific CD8+ T cells displaying effector function [10]: significantly increased
- total number of influenza matrix specific CD8+ T cells displaying effector function [10]: significantly increased
